Earlier results as cited in patent publication US20200069786A1, “COMPOSITION AND PROCESS FOR PREPARING VACCINE” (TREOS BIO ZRT., priority 2018, published 2020).
Read-outs that look alike come from different tables or passages of the source.

Tested on: TSA
[1] = TSA expression rate in HEAD and NECK
[2] = TSA expression rate in PROSTATE cancer
[3] = TSA expression rate in BLADDER cancer
[4] = TSA expression rate in Cervical cancer
[5] = TSA expression rate in Esophageal
[6] = TSA expression rate in GASTRIC cancer
[7] = TSA expression rate in LEUKEMIAS
[8] = TSA expression rate in LYMPHOMAS
[9] = TSA expression rate in MELANOMA
[10] = TSA expression rate in PEDIATRIC

Molecule | TSA Expression Rate (ER) (BREAST) [%] | TSA Expression Rate (ER) (HCC) [%] | TSA Expression Rate (ER) (LUNG) [%] | TSA Expression Rate (ER) (OVARIAN) [%] | TSA Expression Rate (ER) (PANCREATIC) [%] | Expression Rate (ER) % (TSA expression rate in CRC) [%] | Expression Rate (ER) % [1] [%] | Expression Rate (ER) % (TSA expression rate in Kidney) [%] | Expression Rate (ER) % [2] [%] | TSA Expression Rate (ER) (BRAIN) [%] | TSA Expression Rate (ER) (THYROID) [%] | Expression Rate (ER) % [3] [%] | Expression Rate (ER) % [4] [%] | Expression Rate (ER) % [5] [%] | Expression Rate (ER) % [6] [%] | Expression Rate (ER) % [7] [%] | Expression Rate (ER) % [8] [%] | Expression Rate (ER) % [9] [%] | Expression Rate (ER) % [10] [%] | Expression Rate (ER) % (TSA expression rate in LUNG cancer) [%]
SPAG1 (protein, UniProt Q07617 1-926, looked up) Sperm-associated antigen 1: MTTKDYPSLWGFGTTKTFKIPIEHLDFKYIEKCSDVKHLEKILCVLRSGEEGYYPELTEFCEKHLQALAPESRALRKDKPAATAASFTAEEWEKIDGDIKSWVSEIKKEEDKMHFHETETFPAMKDNLPPVRGSNSCLHVGKEKYSKRPTKKKTPRDYAEWDKFDVEKECLKIDEDYKEKTVIDKSHLSKIETRIDTAGLTEKEKDFLATREKEKGNEAFNSGDYEEAVMYYTRSISALPTVVAYNNRAQAEIKLQNWNSAFQDCEKVLELEPGNVKALLRRATTYKHQNKLREATEDLSKVLDVEPDNDLAKKTLSEVERDLKNSEAASETQTKGKRMVIQEIENSEDEEGKSGRKHEDGGGDKKPAEPAGAARAAQPCVMGNIQKKLTGKAEGGKRPARGAPQRGQTPEAGADKRSPRRASAAAAAGGGATGHPGGGQGAENPAGLKSQGNELFRSGQFAEAAGKYSAAIALLEPAGSEIADDLSILYSNRAACYLKEGNCSGCIQDCNRALELHPFSMKPLLRRAMAYETLEQYGKAYVDYKTVLQIDCGLQLANDSVNRLSRILMELDGPNWREKLSPIPAVPASVPLQAWHPAKEMISKQAGDSSSHRQQGITDEKTFKALKEEGNQCVNDKNYKDALSKYSECLKINNKECAIYTNRALCYLKLCQFEEAKQDCDQALQLADGNVKAFYRRALAHKGLKNYQKSLIDLNKVILLDPSIIEAKMELEEVTRLLNLKDKTAPFNKEKERRKIEIQEVNEGKEEPGRPAGEVSMGCLASEKGGKSSRSPEDPEKLPIAKPNNAYEFGQIINALSTRKDKEACAHLLAITAPKDLPMFLSNKLEGDTFLLLIQSLKNNLIEKDPSLVYQHLLYLSKAERFKMMLTLISKGQKELIEQLFEDLSDTPNNHFTLEDIQALKRQYEL | 31 | 11 | 71 | 31 | 93 | 55 | 7 | 11 | 27 | – | – | – | – | – | – | – | – | – | – | –
MAGE-A3 (protein, UniProt P43357 1-314, looked up) Melanoma-associated antigen 3: MPLEQRSQHCKPEEGLEARGEALGLVGAQAPATEEQEAASSSSTLVEVTLGEVPAAESPDPPQSPQGASSLPTTMNYPLWSQSYEDSSNQEEEGPSTFPDLESEFQAALSRKVAELVHFLLLKYRAREPVTKAEMLGSVVGNWQYFFPVIFSKASSSLQLVFGIELMEVDPIGHLYIFATCLGLSYDGLLGDNQIMPKAGLLIIVLAIIAREGDCAPEEKIWEELSVLEVFEGREDSILGDPKKLLTQHFVQENYLEYRQVPGSDPACYEFLWGPRALVETSYVKVLHHMVKISGGPHISYPPLHEWVLREGEE | 28 | 34 | 37 | 30 | 11 | 22 | 40 | 27 | 15 | 42 | 22 | 42 | 16 | 66 | 37 | 65 | 17 | 60 | 76 | –
DPPA2 (protein, UniProt Q7Z7J5 1-298, looked up) Developmental …: MSDANLDSSKKNFLEGEVDDEESVILTLVPVKDDANMEQMEPSVSSTSDVKLEKPKKYNPGHLLQTNEQFTAPQKARCKIPALPLPTILPPINKVCRDTLRDWCQQLGLSTNGKKIEVYLRLHRHAYPEQRQDMPEMSQETRLQRCSRKRKAVTKRARLQRSYEMNERAEETNTVEVITSAPGAMLASWARIAARAVQPKALNSCSIPVSVEAFLMQASGVRWCVVHGRLLSADTKGWVRLQFHAGQAWVPTTHRRMISLFLLPACIFPSPGIEDNMLCPDCAKRNKKMMKRLMTVEK | – | – | 30 | 31 | – | 44 | – | – | – | – | – | – | – | – | 100 | – | – | – | – | –
AKAP-4 (protein, UniProt Q5JQC9 189-854, looked up) A-kinase anchor protein 4: QSPSAPPAKPPSTQRAVISPDGECSIDDLSFYVNRLSSLVIQMAHKEIKEKLEGKSKCLHHSICPSPGNKERISPRTPASKIASEMAYEAVELTAAEMRGTGEESREGGQKSFLYSELSNKSKSGDKQMSQRESKEFADSISKGLMVYANQVASDMMVSLMKTLKVHSSGKPIPASVVLKRVLLRHTKEIVSDLIDSCMKNLHNITGVLMTDSDFVSAVKRNLFNQWKQNATDIMEAMLKRLVSALIGEEKETKSQSLSYASLKAGSHDPKCRNQSLEFSTMKAEMKERDKGKMKSDPCKSLTSAEKVGEHILKEGLTIWNQKQGNSCKVATKACSNKDEKGEKINASTDSLAKDLIVSALKLIQYHLTQQTKGKDTCEEDCPGSTMGYMAQSTQYEKCGGGQSAKALSVKQLESHRAPGPSTCQKENQHLDSQKMDMSNIVLMLIQKLLNENPFKCEDPCEGENKCSEPRASKAASMSNRSDKAEEQCQEHQELDCTSGMKQANGQFIDKLVESVMKLCLIMAKYSNDGAALAELEEQAASANKPNFRGTRCIHSGAMPQNYQDSLGHEVIVNNQCSTNSLQKQLQAVLQWIAASQFNVPMLYFMGDKDGQLEKLPQVSAKAAEKGYSVGGLLQEVMKFAKERQPDEAVGKVARKQLLDWLLANL | 85 | – | 25 | 89 | – | 74 | – | – | 65 | – | – | – | 86 | – | – | – | – | – | – | –
MAGE-A9 (protein, UniProt P43362 1-315, looked up) Melanoma-associated antigen 9: MSLEQRSPHCKPDEDLEAQGEDLGLMGAQEPTGEEEETTSSSDSKEEEVSAAGSSSPPQSPQGGASSSISVYYTLWSQFDEGSSSQEEEEPSSSVDPAQLEFMFQEALKLKVAELVHFLLHKYRVKEPVTKAEMLESVIKNYKRYFPVIFGKASEFMQVIFGTDVKEVDPAGHSYILVTALGLSCDSMLGDGHSMPKAALLIIVLGVILTKDNCAPEEVIWEALSVMGVYVGKEHMFYGEPRKLLTQDWVQENYLEYRQVPGSDPAHYEFLWGSKAHAETSYEKVINYLVMLNAREPICYPSLYEEVLGEEQEGV | 44 | 5 | – | 37 | – | – | 44 | 55 | – | – | – | 61 | – | 55 | – | 9 | – | 12 | – | –
HOM-TES-85 (protein, UniProt Q9P127 1-313, looked up) Leucine zipper protein 4: MASFRKLTLSEKVPPNHPSRKKVNFLDMSLDDIIIYKELEGTNAEEEKNKRQNHSKKESPSRQQSKAHRHRHRRGYSRCRSNSEEGNHDKKPSQKPSGFKSGQHPLNGQPLIEQEKCSDNYEAQAEKNQGQSEGNQHQSEGNPDKSEESQGQPEENHHSERSRNHLERSLSQSDRSQGQLKRHHPQYERSHGQYKRSHGQSERSHGHSERSHGHSERSHGHSERSHGHSKRSRSQGDLVDTQSDLIATQRDLIATQKDLIATQRDLIATQRDLIVTQRDLVATERDLINQSGRSHGQSERHQRYSTGKNTITT | 47 | 19 | – | 32 | – | – | 4 | – | – | 10 | – | 0 | – | – | – | – | 14 | – | – | 11
FTHL17 (protein, UniProt Q9BXU8 1-183, looked up) Ferritin heavy …: MATAQPSQVRQKYDTNCDAAINSHITLELYTSYLYLSMAFYFNRDDVALENFFRYFLRLSDDKMEHAQKLMRLQNLRGGHICLHDIRKPECQGWESGLVAMESAFHLEKNVNQSLLDLYQLAVEKGDPQLCHFLESHYLHEQVKTIKELGGYVSNLRKICSPEAGLAEYLFDKLTLGGRVKET | 14 | – | 25 | – | – | 0 | 10 | 0 | 0 | 82 | 0 | 22 | – | 0 | – | – | – | 0 | – | –
MAGE-A4 (protein, UniProt P43358 1-317, looked up) Melanoma-associated antigen 4: MSSEQKSQHCKPEEGVEAQEEALGLVGAQAPTTEEQEAAVSSSSPLVPGTLEEVPAAESAGPPQSPQGASALPTTISFTCWRQPNEGSSSQEEEGPSTSPDAESLFREALSNKVDELAHFLLRKYRAKELVTKAEMLERVIKNYKRCFPVIFGKASESLKMIFGIDVKEVDPASNTYTLVTCLGLSYDGLLGNNQIFPKTGLLIIVLGTIAMEGDSASEEEIWEELGVMGVYDGREHTVYGEPRKLLTQDWVQENYLEYRQVPGSNPARYEFLWGPRALAETSYVKVLEHVVRVNARVRIAYPSLREAALLEEEEGV | 9 | 7 | 27 | 37 | 2 | 18 | 42 | 17 | 0 | 11 | 0 | 27 | 23 | 76 | 24 | 36 | – | 30 | 41 | –
